According to patent US20230183713A1, “SITE-SPECIFIC RECOMBINASES FOR EFFICIENT AND SPECIFIC GENOME EDITING” (TECHNISCHE UNIVERSITÄt DRESDEN, published 2023):
Where a chain is given by its changes, count along the chain named. Names may count otherwise.

What was measured:
[1] = biological target: T1, Cre recombinase monomer with Q311R mutation
T1 chain: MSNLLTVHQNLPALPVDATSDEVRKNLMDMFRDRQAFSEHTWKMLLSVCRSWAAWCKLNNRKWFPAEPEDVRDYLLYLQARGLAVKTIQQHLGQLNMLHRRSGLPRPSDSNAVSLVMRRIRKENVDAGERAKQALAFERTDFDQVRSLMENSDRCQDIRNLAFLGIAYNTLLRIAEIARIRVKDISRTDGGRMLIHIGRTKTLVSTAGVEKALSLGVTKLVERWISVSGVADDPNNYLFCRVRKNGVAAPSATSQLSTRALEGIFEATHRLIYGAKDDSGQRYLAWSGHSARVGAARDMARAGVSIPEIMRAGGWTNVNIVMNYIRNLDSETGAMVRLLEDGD

[2] = biological target: T2, Cre recombinase monomer with R292Q mutation
T2 chain: T1 chain with R292Q, R311Q

[3] = biological target: T3, Cre recombinase monomer with R292A mutation
T3 chain: T1 chain with R292A, R311Q

[4] = biological target: T4, Cre recombinase monomer with W315N mutation
T4 chain: T1 chain with R311Q, W315N

[5] = biological target: T5, Cre recombinase monomer with K201P mutation
T5 chain: T1 chain with K201P, R311Q

[6] = biological target: T6, Cre recombinase monomer with Y324N mutation
T6 chain: T1 chain with R311Q, Y324N

[7] = biological target: T7, Cre recombinase monomer with Y324R mutation
T7 chain: T1 chain with R311Q, Y324R

[8] = biological target: T8, Cre recombinase monomer with Y324T mutation
T8 chain: T1 chain with R311Q, Y324T

[9] = biological target: T9, Cre recombinase monomer with K201Q mutation
T9 chain: T1 chain with K201Q, R311Q

[10] = biological target: T10, Cre recombinase monomer with Y324S mutation
T10 chain: T1 chain with R311Q, Y324S

B1: Cre recombinase monomer with K201C mutation (protein)
chain: T1 chain with K201C, R311Q
- Median dimer activity (recombination on loxP) [1]: 93%
- Median dimer activity (recombination on loxP) [2]: 52%

B2: Cre recombinase monomer with Q133H mutation (protein)
chain: T1 chain with Q133H, R311Q
- Median dimer activity (recombination on loxP) [1]: 96%
- Median dimer activity (recombination on loxP) [3]: 48%
- Median dimer activity (recombination on loxP) [4]: 33%

B3: Cre recombinase monomer with K201D mutation (protein)
chain: T1 chain with K201D, R311Q
- Median dimer activity (recombination on loxP) [5]: 70%

B4: Cre recombinase monomer with W315C mutation (protein)
chain: T1 chain with R311Q, W315C
- Median dimer activity (recombination on loxP) [6]: 38%
- Median dimer activity (recombination on loxP) [7]: 31%
- Median dimer activity (recombination on loxP) [8]: 36%

B5: Cre recombinase monomer with E176W mutation (protein)
chain: T1 chain with E176W, R311Q
- Median dimer activity (recombination on loxP) [9]: 28%
- Median dimer activity (recombination on loxP) [1]: 90%

B6: Cre recombinase monomer with W315E mutation (protein)
chain: T1 chain with R311Q, W315E
- Median dimer activity (recombination on loxP) [10]: 35%
